For one substance, binding signal (% RNA colocalized) results are on record in article PMC5389562.

In the series the target is T1, mCherry-U2AF35 (UniProt Q01081).
T1 sequence: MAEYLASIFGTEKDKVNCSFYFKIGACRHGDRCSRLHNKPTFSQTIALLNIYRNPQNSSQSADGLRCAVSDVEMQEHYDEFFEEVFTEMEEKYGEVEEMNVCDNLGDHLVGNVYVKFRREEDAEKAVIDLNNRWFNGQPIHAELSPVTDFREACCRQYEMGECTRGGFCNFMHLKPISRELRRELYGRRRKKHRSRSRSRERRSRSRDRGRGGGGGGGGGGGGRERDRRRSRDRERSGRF
Briefly: single-molecule colocalization/bleaching. The settings on record: 5' GMPS; HEK293T nuclear extract expressing fusion proteins, preincubated 15 min with ATP/phosphocreatine or ATP-depleted at 30 C; pre-mRNA 62.5 nM; +ATP reactions ….

On to GloC pre-mRNA, for which the binding signal (% RNA colocalized) turned out to be 20.
